Assays:
[1] = target: SARS-CoV-2 Beta variant spike protein on pseudovirus (SARS-CoV-2), P0DTC2; experiment: cell-based or functional assay
[2] = target: SARS-CoV-2 Delta variant spike protein on pseudovirus (SARS-CoV-2), P0DTC2; experiment: cell-based or functional assay

B1: NCI-CoV-S2A9 (VNAR)
chain: ARVDQTPRSVTKETGESLTINCVLRDASYALGRTCWYRKKSGSTNEESISKGGRYVETVNSGSKSFSLRINDLTVEDGGTYRCGVSTPWSCDYGPLCFYAACGDGTVVTVN
B1 was tested, and the IC50 for neutralizing pseudovirus [1] was 2220 nM and the IC50 for neutralizing pseudovirus [2] was 1880 nM.
